In the Human Domainome abundance scans (Beltran et al. 2025):

B1: Receptor-interacting serine/threonine-protein kinase 2, residues 438 to 518; numbered along this chain, O43353 (parent)
chain: QWIQSKREDIVNQMTEACLNQSLDALLSRDLIMKEDYELVSTKPTRTSKVRQLLDTTDIQGEEFAKVIVQKLKDNKQMGLQ

Variants of: B1
Experiment: abundance fitness (aPCA) (normalised: wild type 0, dead -1); higher = more abundant; growth selection in yeast, the domain comes from the species named
Details: Homo sapiens

Abundance fitness, by site and new letter:
T15: I -1.12, R -0.937, E -0.767, V -0.777, D -0.152, C -0.877, K -0.736, Q -0.126
D9: C -0.341, K -0.437, P -0.898, F -0.498, H -0.336, M -0.328, Q -0.151, N -0.731, S -0.303, G -0.532, I 0.255, E -0.317, V -0.172, A -0.288, Y -0.107, W -0.147, T -0.331
N20: T -0.29, R -0.106, G -0.159, K 0.117, L -0.102, A -0.048, Y 0.112, W 0.075, S -0.043, V -0.274, H 0.119, C -0.564, P -0.829, Q -0.091, F 0.023, E -0.571
L19: A -0.447, T -0.112, F -0.833, Q -0.351, G -0.502, N -0.454, Y -0.607, S -0.792, M -0.306, K -0.884, W -1, V -0.25, I 0.024, P -0.3
A17: N -0.166, Q 0.076, L -0.186, D 0.042, K -0.072, V 0.004, C -0.107, H -0.043, E 0.182, P -0.33, W -0.485, S -0.117, I -0.569, F -0.839, T 0.131, M -0.25, G -0.175, Y -0.137
I3: M -0.292, S -0.767, P -0.194, D -0.051, F -0.771, L -0.205, G -0.87, T -0.745, K -0.975
E8: A -0.367
